Measured values as given in patent publication US20070020283A1 (Regeneron, published 2007).
Residue numbers refer to the chain shown, from its start. Names and notes keep the numbering of the source.

T1: hIFNγRβ.SG.hFc (human, UniProt P38484 28-246)
T1 construct: also called pCTR 2828; not shown: hinge, CH2 and CH3 regions of human IgG1 (hFc)
T1 sequence: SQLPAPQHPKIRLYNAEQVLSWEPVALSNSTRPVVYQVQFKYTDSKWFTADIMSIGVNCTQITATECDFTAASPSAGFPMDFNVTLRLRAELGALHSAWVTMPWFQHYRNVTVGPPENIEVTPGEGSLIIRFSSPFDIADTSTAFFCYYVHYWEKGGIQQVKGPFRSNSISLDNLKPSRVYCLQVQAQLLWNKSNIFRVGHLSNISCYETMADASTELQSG

B1: human interferon γ (ligand, UniProt P01579 24-166, looked up)
chain: QDPYVKEAENLKKYFNAGHSDVADNGTLFLGILKNWKEESDRKIMQSQIVSFYFKLFKNFKDDQSIQKSVETIKEDMNVKFFNSNKKKRDDFEKLTNYSVTDLNVQRKAIHELIQVMAELSPAAKTGKRKRSQMLFRGRRASQ
notes: Injected in solution over captured fusion proteins (BiaCore); Recombinant human IFNγ at 4 pM in the luciferase bioassays; also called IFNγ; human IFNγ
B2: hIFNγRβ(C174S).SG.hFc (Fc fusion)
chain: T1 sequence with C147S
notes: also called pCTR 2848; not shown: hinge, CH2 and CH3 regions of human IgG1 (hFc)
B3: hIFNγRβ.TG.hIFNγRα(1-239).SG.hFc (Fc fusion)
chain: SQLPAPQHPKIRLYNAEQVLSWEPVALSNSTRPVVYQVQFKYTDSKWFTADIMSIGVNCTQITATECDFTAASPSAGFPMDFNVTLRLRAELGALHSAWVTMPWFQHYRNVTVGPPENIEVTPGEGSLIIRFSSPFDIADTSTAFFCYYVHYWEKGGIQQVKGPFRSNSISLDNLKPSRVYCLQVQAQLLWNKSNIFRVGHLSNISCYETMADASTELQTGMALLFLLPLVMQGVSRAEMGTADLGPSSVPTPTNVTIESYNMNPIVYWEYQIMPQVPVFTVEVKNYGVKNSEWIDACINISHHYCNISDHVGDPSNSLWVRVKARVGQKESAYAKSEEFAVCRDGKIGPPKLDIRKEEKQIMIDIFHPSVFVNGDEQEVDYDPETTCYIRVYNVYVRMNGSEIQYKILTQKEDDCDEIQCQLAIPVSSLNSQYCVSAEGVLHVWGVTTEKSKEVCITIFSG
notes: PCTR number 2843 is printed for two different constructs (r17 and r19); also called pCTR 2843; R2-R1-Fc; not shown: hinge, CH2 and CH3 regions of human IgG1 (hFc)
B4: hIFNγRα(1-239).SG.hFc (Fc fusion, not shown: a dimerising Fc or GST)
chain: EMGTADLGPSSVPTPTNVTIESYNMNPIVYWEYQIMPQVPVFTVEVKNYGVKNSEWIDACINISHHYCNISDHVGDPSNSLWVRVKARVGQKESAYAKSEEFAVCRDGKIGPPKLDIRKEEKQIMIDIFHPSVFVNGDEQEVDYDPETTCYIRVYNVYVRMNGSEIQYKILTQKEDDCDEIQCQLAIPVSSLNSQYCVSAEGVLHVWGVTTEKSKEVCITIFSG
B5: hIFNγRα(1-239).TG.hFc.ARA.hIFNγRβ (Fc fusion, not shown: a dimerising Fc or GST)
chain (part 1 of 2): B4 chain with S223T
chain (part 2 of 2): ARASQLPAPQHPKIRLYNAEQVLSWEPVALSNSTRPVVYQVQFKYTDSKWFTADIMSIGVNCTQITATECDFTAASPSAGFPMDFNVTLRLRAELGALHSAWVTMPWFQHYRNVTVGPPENIEVTPGEGSLIIRFSSPFDIADTSTAFFCYYVHYWEKGGIQQVKGPFRSNSISLDNLKPSRVYCLQVQAQLLWNKSNIFRVGHLSNISCYETMADASTELQ

Legend:
[1] = target: T1, hIFNγRβ.SG.hFc; experiment: BiaCore, fusion captured by anti-human Fc, human IFNγ injected
Procedure: (§1) The affinity of the interferon γ-binding fusion polypeptides for human interferon γ was measured using a BlAcore 2000™ or BlAcore 3000™, as described in WO 00/75319, herein specifically incorporated by reference in its entirety. Briefly, the IFNγ-specific polypeptides were produce as small-scale supernatants by transiently transfecting CHO cells, using Lipofectamine/LIPO Plus® (Life Technologies), with DNA constructs encoding the proteins. Supernatants were collected after 72 hours and protein expression was measured by Western blotting with anti-human Fc HRP-conjugated antibody (Promega) and visualized by ECL (Pierce). Briefly, 5.4×10⁵ CHOK1 cells per well of a 6 well tissue culture dish were transfected using 1 μg of DNA and 5 μl of lipofectamine in OptiMEM™ (Gibco). After 12 h the cells were washed with OptiMEM™ and 2 ml of CHO serum free medium (Gibco) was added. After 60 h and 72 h the media was collected and centrifuged to remove cellular debris. For the BiaCore™ analysis, the IFNγ-binding fusion polypeptides from the transiently transfected CHO supernatants were captured onto the chip surface using anti-human Fc antibodies. Various concentrations of human IFNγ are injected over the surface and the time course of association and dissociation are monitored. Kinetic analyses using BIA evaluation software were performed to obtain the association and dissociation rate constants.

[2] = target: B5; experiment: BiaCore (SPR), fusion captured by anti-human Fc, human IFNγ injected; R1-Fc-R2 configuration
Procedure: as §1

[3] = target: B4; experiment: BiaCore (SPR), fusion from CHO supernatant captured by anti-human Fc, human IFNγ injected
Procedure: as §1

[4] = target: B1; experiment: BiaCore, fusion captured by anti-human Fc, human IFNγ injected
Procedure: as §1

[5] = target: B1; experiment: BiaCore (SPR), fusion captured by anti-human Fc, human IFNγ injected; R2-R1-Fc configuration
Procedure: as §1

[6] = target: B1; experiment: cell-based or functional assay

IC50 (M), GAS-luciferase bioassay in HEK293 cells [6]	IC50 (M), ISRE-luciferase bioassay in HEK293 cells [6]	Binder	further results
–	–	B1	binding result [1]: no binding; Kd [2]: > 10 nM; Kd [3]: 6 nM
–	–	B2	binding result [4]: no binding
9.8e-09 M	1.46e-08 M	B3	Kd [5]: > 10 nM
7.9e-09 M	6.2e-09 M	B4	–
1.6e-08 M	8e-07 M	B5	–
